The target in assay [1] is tetherin Y6,8A (stably expressed in 293T/tetherin Y6,8A cells) (UniProt Q10589). The assay can be described thus: co-immunoprecipitation (anti-tetherin IP, Western blot, LiCor quantitative imager). The settings on record: MOI of 2, 48 h post infection.
Assay [2] deals with Vpu of wildtype HIV-1 NL4.3 (expressed from the virus). The assay is described as above. The note with it: 293T/tetherin Y6,8A cells, MOI of 2, 48 h post infection, read off a plot.

For “Vpu of wildtype HIV-1 NL4.3 (expressed from the virus) E59A; L63A; V64A”, the response (ratio Vpu/tetherin band intensity in IP) in assay [1] (UBAP1 siRNA, parent: est. 1.3, read off a plot) turned out to be 0.9; in assay [1] (control siRNA, parent: est. 1.6, read off a plot), 0.5.
On to “human tetherin (stably expressed in 293T/tetherin cells) (from UniProt Q10589) Y6A; Y8A”, for which the response (ratio Vpu/tetherin band intensity in IP) in assay [2] (UBAP1 siRNA) amounted to 1.3; in assay [2] (control siRNA), 1.6.
